Assay results reported in paper PMC11323482, “Role of the antiparallel double-stranded filament form of FtsA in activating the Escherichia coli divisome” (mBio, 2024).

How the values were obtained:
[1] = target: the molecule itself; test: cross-linking; in vivo site-specific cysteine crosslinking in E. coli cells with BMB or BMH (0.5 mM, 10 min, cold PBS), quenched with beta-mercaptoethanol; SDS-PAGE and immunoblot with anti-FtsA; dividing cells: ftsZ84(ts) strains 10 and 20 min after return to 30 °C, ftsQ1ts and zipA1ts at 30 °C, ftsA° strain at 30 or 42 °C, WM4952 at 37 °C, WM4953
[2] = target: the molecule itself; test: cross-linking; in vivo cysteine crosslinking in ftsQ1(ts) cells (WM7148) shifted to the nonpermissive 42 °C, compared with 30 °C; SDS-PAGE and anti-FtsA immunoblot
[3] = target: the molecule itself; test: cross-linking; in vivo cysteine crosslinking in zipA1(ts) cells (WM7149) shifted to the nonpermissive 42 °C, compared with 30 °C; SDS-PAGE and anti-FtsA immunoblot

Row | Protein | DS filament crosslinking at Q155C, percent of WT levels [1] [%] | fold decrease of the crosslinked band's intensity at 42 °C against 30 °C [2] [fold] | fold decrease of the crosslinked band's intensity at 42 °C against 30 °C [3] [fold]
1 | FtsA^M71A with Q155C (natural protein, E. coli, UniProt P0ABH0 1-420, looked up, FtsA, E. coli, M71A, measured by crosslinking at Q155C; M71A introduced into pWM7049 or pWM7239; source: E. coli, expressed from plasmid, in living cells) MIKATDRKLVVGLEIGTAKVAALVGEVLPDGMVNIIGVGSCPSRGMDKGGVNDLESVVKCVQRAIDQAELAADCQISSVYLALSGKHISCQNEIGMVPISEEEVTQEDVENVVHTAKSVRVRDEHRVLHVIPQEYAIDYQEGIKNPVGLSGVRMCAKVHLITCHNDMAKNIVKAVERCGLKVDQLIFAGLASSYSVLTEDERELGVCVVDIGGGTMDIAVYTGGALRHTKVIPYAGNVVTSDIAYAFGTPPSDAEAIKVRHGCALGSIVGKDESVEVPSVGGRPPRSLQRQTLAEVIEPRYTELLNLVNEEILQLQEKLRQQGVKHHLAAGIVLTGGAAQIEGLAACAQRVFHTQVRIGAPLNITGLTDYAQEPYYSTAVGLLHYGKESHLNGEAEVEKRVTASVGSWIKRLNSWLRKEF | ~35 | – | –
2 | FLAG-FtsA^Q155C (natural protein, E. coli, UniProt P0ABH0 1-420, looked up, FtsA, E. coli, with the cysteine substitution Q155C; made by site-directed mutagenesis on pWM2785 (pDSW210-FLAG-FtsA); Native FtsA is also present in some strains; also called pDSW210-FLAG-FtsA^Q155C; source: E. coli, expressed from plasmid pDSW210 (IPTG), in living cells; not shown: FLAG, N-terminal, kept) MIKATDRKLVVGLEIGTAKVAALVGEVLPDGMVNIIGVGSCPSRGMDKGGVNDLESVVKCVQRAIDQAELMADCQISSVYLALSGKHISCQNEIGMVPISEEEVTQEDVENVVHTAKSVRVRDEHRVLHVIPQEYAIDYQEGIKNPVGLSGVRMCAKVHLITCHNDMAKNIVKAVERCGLKVDQLIFAGLASSYSVLTEDERELGVCVVDIGGGTMDIAVYTGGALRHTKVIPYAGNVVTSDIAYAFGTPPSDAEAIKVRHGCALGSIVGKDESVEVPSVGGRPPRSLQRQTLAEVIEPRYTELLNLVNEEILQLQEKLRQQGVKHHLAAGIVLTGGAAQIEGLAACAQRVFHTQVRIGAPLNITGLTDYAQEPYYSTAVGLLHYGKESHLNGEAEVEKRVTASVGSWIKRLNSWLRKEF | – | 3 | 7.5
